Test results from patent publication CN110156895A (SHANGHAI JIABEI BIOMEDICAL TECH CO LTD, dated 2019).

Columns and labels:
人PD-L1胞外区-6His [1] = molecular target: T1, 人PD-L1胞外区-6His (human, UniProt Q9NZQ7 19-238); assay: AlphaLISA competition: antibody titrated against binding of His-tagged PD-L1 to biotinylated PD-1
T1 construct: also called PD-L1-6His; 人PD-L1胞外结构区-6His蛋白

人PD-L1胞外区-6His [2] = molecular target: T1, 人PD-L1胞外区-6His; assay: SPR (Biacore), multi-cycle kinetics; antibody captured on Protein A chip, PD-L1 as analyte from 40 nM in 2-fold dilutions, 6 concentrations

T1 sequence (Q9NZQ7 other isoform, or with tags, fused parts or gaps): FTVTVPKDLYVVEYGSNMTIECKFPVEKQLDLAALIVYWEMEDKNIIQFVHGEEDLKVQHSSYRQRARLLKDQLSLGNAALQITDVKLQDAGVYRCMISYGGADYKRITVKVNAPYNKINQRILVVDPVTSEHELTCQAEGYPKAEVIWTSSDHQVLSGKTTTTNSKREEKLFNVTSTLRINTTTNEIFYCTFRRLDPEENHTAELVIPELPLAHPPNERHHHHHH

IC50 (人PD-L1胞外区-6His [1]): 0.0372 µg/mL
Kd (人PD-L1胞外区-6His [2]): 7.1 nM
B1: 抗PD-L1全人源单克隆抗体 (antibody, V domains shown)
VH: QVQLVQSGGELKRPGSSVKVSCKASGGTFSSYAISWVRQAPGQGLEWMGRIIPIFGTANYAQKFQGRVTITADESTSTAYMELSSLRSEDTAVYYCASSSYRHFAFDIWGQGTTVTVSS
VL: QSALTQPASVSGSPGQSITISCTGTSSDVGSYNLVSWYQQHPGKAPKLMIYEVTKRPSGVSNRFSGSKSGNTASLTISGLQAEDEADYYCSSYAGSNNLVFGGGTKVTVL
notes: also called 抗PD-L1抗体; 抗PD-L1全长抗体
